Tests used:
[1] = tested on: CD3+ T lymphocytes from normal HLA-A2+ donors; experiment: Phenotypic analysis of peptide-stimulated T cells (flow cytometry); format: cell-based, human; settings: after peptide stimulation; for percentage of CD8+ T cells: unstimulated cultures 33%; for percentage of CD4+ T cells: unstimulated cultures 64%
Protocol: Peptide-specific CTL (that is, XBP1, CD138, or CS1-peptide-specific CTL) were generated ex vivo by repeated stimulation of CD3^+ T lymphocytes obtained from normal HLA-A2^+ donors with XBP1, CD138, or CS1-peptide-pulsed antigen-presenting cells (APC), either T2 cells or mDC. In brief, T2 cells were washed and resuspended in serum-free AIM-V medium (Gibco BRL) and pulsed overnight at 37° C. with 50 μg/ml of the appropriate XBP1 or CD138 peptide. Peptide-pulsed APC were washed, counted, irradiated at 10 Gy and used to prime CD3^+ T cells at a 1:40 T2/peptide (stimulator)-to-CD3^+ T cell (responder) ratio in AIM-V medium supplemented with 10% human AB serum (BioWhittaker, Walkersville, Md.). The T cell cultures were restimulated every seven days with irradiated APC/peptide for a total of 4 cycles to generate XBP1 peptide-specific CTL (XBP1-CTL), CD138 peptide-specific CTL (CD138-CTL), or CS1 peptide-specific CTL (CS1-CTL). It is clear from the foregoing that “XBP1-CTL,” “CD138-CTL,” and “CS1-CTL” referred to herein are not clonal (or homogenous) populations. Rather, the XBP1-CTL, CD138-CTL, and CS1-CTL cells are heterogenous populations of lymphocytes comprising XBP1 peptide-, CD138 peptide-, or CS1 peptide-specific CTL along with non-specific CTL, APCs, and other lymphocytes obtained from the normal donors. 50 U/ml of interleukin-2 (IL-2) was added to the cultures two days after the second stimulation. Control T cell cultures (unstimulated with peptide) were maintained in AIM-V medium supplemented with 10% human AB serum containing 50 U/ml IL-2.
To determine the phenotype of the XBP1-CTL, CD4, or CD8 expression by the cells was detected using anti-CD4-PE or anti-CD8-FITC mouse anti-human mAbs. In addition, a variety of other expression markers were detected on the cells using combinations of either FITC-conjugated anti-CD69/PE-conjugated-anti-CD45RO or FITC-conjugated anti-CD45RA-FITC/PE-conjugated anti-CCR7 mouse anti-human mAbs. Alternatively, HLA-A2 expression by U266, McCAR, ML-2 and MM1S cells was determined using an FITC-conjugated anti-HLA-A2 anti-human mAb. After contacting the cells with antibodies for 15 minutes at 4° C., the cells were washed and analyzed using a FACSort™ flow cytometer with CellQuest v2.1 software (Becton Dickinson).
Cytotoxic T lymphocytes (CTL) are defined phenotypically by the expression of distinct cell surface antigens (e.g., CD8). Cell surface antigens can also be used to further define CTL as naïve or activated memory cells. For example, naïve humanCTL can be identified by the presence of CD45RA^+/CCR7^+, whereas activated human memory cells can be identified as CD69^+/CD45RO^+. Flow cytometry was performed on populations of human T cells stimulated with the heteroclitic peptides to determine the percentage of CTL that were naïve or activated memory cells. […] The unstimulated control T cells or CD138-CTL were further examined for naïve (CD45RA^+/CCR7^+) or activated memory (CD69^+/CD45RO^+) cell status.

[2] = molecular target: T1, HLA-A2 molecules on the surface of human T2 cells (Homo sapiens, UniProt P04439, D140Y/D185E/D98H/E176V/E277Q/G131W/G231S/I119V/I121R/I166T/I218V/L300P/L318F/N151K/N90K/P208A/P217A/Q86G/Q94H/R138H/R169H/T345S); format: binding; settings: non-spliced XBP1 peptides (FIG. 1), 50 μg/ml peptide (30 μg/ml influenza peptide), overnight
[3] = tested on: CD8+ T cells; experiment: Expansion of P2 peptide-specific CS1-CTL (HLA-A*0201 P2-tetramer / anti-CD8 flow analysis); format: cell-based, human; settings: after the fourth re-stimulation with peptide-presenting dendritic cells
[4] = molecular target: T1, HLA-A2 molecules on the surface of human T2 cells; experiment: Peptide stability assay (peptide/HLA-A2 binding stability post-Brefeldin A); settings: for HLA-A2 binding stability (HLA-A2 up-regulation on T2 cells) versus native counterpart: spliced XBP1 heteroclitic peptides (FIG. 4)
[5] = tested on: McCAR cells; experiment: CTL proliferation by CFSE tracking, stimulation with McCAR cells; format: cell-based, human; settings: cultured with McCAR cells, day 4
Protocol: XBP1-CTL or CD138-CTL were washed twice in PBS (Gibco-BRL) and resuspended in RPMI-1640 culture medium at a concentration of 1×10^6 cells/ml. CFSE (Molecular Probes, Eugene, Oreg.) in the form of a 5 mM stock solution in DMSO was added to the CTL to give a final concentration of 5 μM and incubated for 10 minutes at 37° C. in a CO2 incubator protected from light. After incubation, a volume of ice-cold PBS (containing 2% FCS) equivalent to five-times the volume of the CTL cells was added to the cells to quench the reaction. Cells were incubated for 5 minutes on ice, centrifuged and resuspended in fresh PBS (containing 2% FCS) after a total of three washings. CFSE-labeled T cells were adjusted to a concentration of 2×10^6 cells/ml with RPMI culture medium, stimulated with 2×10^5 cells/ml McCAR cells, ML-2 cells, MM1S cells, or no cells. The stimulated CFSE-labeled cells were examined on by FFC analysis day 4.
XBP1-CTL were exposed to carboxyfluoroscein succinimidyl ester (CFSE) as described above. Proliferation of the XBP1-CTL in response to stimulation with various tumor lines was determined by measuring the amount of CFSE in the cells. CFSE is a membrane permeable dye, which is taken up by cells. […] Thus, the number of cell divisions can be determined as the inverse of the concentration of dye in each cell of a population.

Sequence: GLVGLIFAV (listed as Homo sapiens) [CD138 #2p, native CD138 peptide]
- percentage of CD8+ T cells [1]: 82%
- percentage of CD4+ T cells [1]: 15%

Sequence: ILAVLTLQI (listed as Homo sapiens) [XBP1189-197, native non-spliced XBP1 peptide]
- affinity for HLA-A2, HLA-A2-mean fluorescence intensity (MFI) [2]: significant affinity for HLA-A2 affinity, although less than that of XBP1184-192

Sequence: KLLLENQLL (listed as Homo sapiens) [XBP1110-118, native non-spliced XBP1 peptide]
- affinity for HLA-A2, HLA-A2-mean fluorescence intensity (MFI) [2]: significant affinity for HLA-A2 affinity, although less than that of XBP1184-192

Sequence: LLREKTHGL (listed as Homo sapiens) [XBP1117-125, native non-spliced XBP1 peptide]
- affinity for HLA-A2, HLA-A2-mean fluorescence intensity (MFI) [2]: significant affinity for HLA-A2 affinity, although less than that of XBP1184-192

Sequence: RMSELEQQV (listed as Homo sapiens) [XBP193-101, native non-spliced XBP1 peptide]
- affinity for HLA-A2, HLA-A2-mean fluorescence intensity (MFI) [2]: significant affinity for HLA-A2 affinity, although less than that of XBP1184-192

Sequence: SLFVLGLFL (listed as Homo sapiens) [P2, native CS1 peptide]
- percentage of cells bound by both HLA-A*0201 P2-tetramer and anti-CD8 antibody [3]: Approximately 4.1%

Sequence: VLTLQIQSL (ILAVLTLQI; listed as Homo sapiens) [XBP1192-200, native non-spliced XBP1 peptide]
- affinity for HLA-A2, HLA-A2-mean fluorescence intensity (MFI) [2]: significant affinity for HLA-A2 affinity, although less than that of XBP1184-192

Sequence: YILDNLDPV (listed as Influenza virus) [heteroclitic peptide derived from native spliced XBP1 #1p]
- HLA-A2 binding stability (HLA-A2 up-regulation on T2 cells) versus native counterpart [4]: did not exhibit a significant increase in HLA-A2 stability over its native counterpart

Sequence: YLFPQLISV (listed as Homo sapiens) [SP XBP1 #3M, heteroclitic spliced XBP1 367-375 peptide]
- percentage of CD69+/CD45RO+ (activated memory) cells ([1]; control T cells 4%): 64%
- percentage of CD8+ T cells [1]: 75%
- percentage of CD4+ T cells [1]: 18%
- CTL proliferation (M1 gated, CFSE) [5]: 42%
- time for which higher level of HLA-A2 up-regulation was maintained ([4]; in Brefeldin A after removing unbound peptide (FIG. 4)): 6 h
- HLA-A2 binding stability (HLA-A2 up-regulation on T2 cells) versus native counterpart [4]: increase in HLA-A2 up-regulation on T2 cells

— patent US9096681B2, “XBP1, CD138, and CS1 peptides” (Dana-Farber Cancer Institute, Inc., priority 2008, dated 2015)
